Laboratory results published in patent publication US20140161804A1 (AbbVie / Abbott, published 2014).

How the values were obtained:
Human IL-17A [1] = biological target: T1, Human IL-17A (human, UniProt Q16552 20-155, limits assumed); assay: ELISA, captured DVD-Ig, biotin-human IL-17 titrated
T1 construct: Biotinylated in the ELISAs; purified recombinant protein in SPR; also called hIL17A; hIL-17
Procedure: (§1) The following protocol is used to characterize the binding of TNF/IL-17 DVD-Ig proteins to human TNF and IL-17 by enzyme-linked immunosorbent assay (ELISA). An ELISA plate was coated with 50 μl per well of goat anti mouse IgG-Fc at 2 μg/ml, overnight at 4° C. The plate was washed 3 times with PBS/Tween. 50 μl Mab diluted to 1 μg/ml in PBS/0.1% BSA was added to appropriate wells and incubated for 1 hour at room temperature (RT). The plate was washed 3 times with PBS/Tween. 50 μl of serial diluted biotin-human TNF or IL-17 was added to appropriate wells and incubated for 1 hour at RT. The plate was washed 3 times with PBS/Tween. 50 μl of streptavidin-HRP diluted 1:10,000 in PBS/0.1% BSA was added to appropriate wells and incubated for 1 hour at RT. The plate was washed 3 times with PBS/Tween. 50 μl of TMB was added to appropriate wells and the reaction allowed to proceed for 1 minute. The reaction was stopped with 50 μl/well 2N H₂SO₄ and the absorbance read at 450 nm.

Human TNF = biological target: T2, Human TNF (human, UniProt P01375 77-233); assay: ELISA, captured DVD-Ig, biotin-human TNF titrated
T2 construct: Biotinylated in the ELISA; purified recombinant protein in SPR; also called h TNF; huTNF
Procedure: as §1

Human IL-17A [2] = biological target: T1, Human IL-17A; assay: ELISA, captured antibody, biotin-human IL-17 titrated
Procedure: as §1, with “IL-17 antibodies” for “TNF/IL-17 DVD-Ig proteins”, “human” for “human TNF and”, “biotin-human” for “biotin-human TNF or”

Human IL-17A [3] = biological target: T1, Human IL-17A; assay: SPR (Biacore T200), antibody captured by anti-human IgG Fc, antigen in solution
Procedure: (§2) The binding of antibodies to purified recombinant IL-17 proteins was determined by surface plasmon resonance-based measurements with a Biacore® T200 instrument (GE Healthcare) using running HBS-EP (10 mM HEPES [pH 7.4], 150 mM NaCl, 3 mM EDTA, and 0.005% surfactant P20) containing 0.1 mg/ml BSA at 25° C. All chemicals were obtained from Biacore® AB (GE Healthcare) or otherwise from a source as described in the text. Approximately 5000 RU of goat anti-human IgG (Fcg) fragment specific polyclonal antibody (Pierce Biotechnology Inc, Rockford, Ill.) diluted in 10 mM sodium acetate (pH 4.5) was directly immobilized across a CM5 research grade biosensor chip using a standard amine coupling kit according to manufacturer's instructions and procedures at 25 μg/ml. Unreacted moieties on the biosensor surface were blocked with ethanolamine. Modified carboxymethyl dextran surface in flowcell 2, 3 and 4 were used as a reaction surface. Modified carboxymethyl dextran with Goat IgG in flow cell 1 was used as the reference surface. For kinetic analysis, rate equations derived from the 1:1 Langmuir binding model were fitted simultaneously to association and dissociation phases of all six injections (using global fit analysis with local float for Rmax) with the use of Biacore T200 Evaluation software v.1.0. Purified antibodies were diluted in HEPES-buffered saline for capture across goat anti-human IgG specific reaction surfaces. Antibodies to be captured as ligand (1-5 μg/ml) were injected over reaction matrices at a flow rate of 50 μl/minute. Association phase was monitored for 5 minute, while dissociation phase was monitored for 10-60 min to accommodate for slower off-rates. The association and dissociation rate constants, ka (unit M-1 s-1) and kd (unit s-1) were determined under a continuous flow rate of 50 μl/minute. Rate constants were derived by making kinetic binding measurements at six different antigen concentrations ranging from 0.78 nM to 100 nM, depending on the species of IL-17 tested. The association ka, dissociation rate kd and equilibrium dissociation constant KD were calculated with the use of the same Biacore T200 Evaluation software v.1.0.

Cynomolgus monkey IL-17A = biological target: T3, Cynomolgus monkey IL-17A (cynomolgus monkey, UniProt A0A2K5TTB0 24-155); assay: as above
T3 construct: also called Cyno IL-17AA; Cyno IL17AA
Procedure: as §2

T3 sequence (A0A2K5TTB0 entry or part of it): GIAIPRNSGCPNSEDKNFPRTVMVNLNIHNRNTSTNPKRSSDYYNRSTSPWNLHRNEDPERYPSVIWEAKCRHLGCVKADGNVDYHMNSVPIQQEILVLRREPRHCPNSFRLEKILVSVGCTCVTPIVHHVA
T1 sequence (Q16552 20-155 limits assumed): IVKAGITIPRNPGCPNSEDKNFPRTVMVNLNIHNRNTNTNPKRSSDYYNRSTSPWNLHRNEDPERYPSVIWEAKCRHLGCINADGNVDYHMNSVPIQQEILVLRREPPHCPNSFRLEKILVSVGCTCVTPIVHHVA
T2 sequence (P01375 77-233 limits assumed): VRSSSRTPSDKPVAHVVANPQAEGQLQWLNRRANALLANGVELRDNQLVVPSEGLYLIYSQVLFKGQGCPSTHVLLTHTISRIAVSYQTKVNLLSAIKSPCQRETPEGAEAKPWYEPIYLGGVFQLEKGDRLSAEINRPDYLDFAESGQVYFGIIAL

Row | Binder | EC50 (Human IL-17A [1]) [nM] | EC50 (Human TNF) [nM] | EC50 (Human IL-17A [2]) [nM] | Kd (Human IL-17A [3]) [nM] | koff (Human IL-17A [3]) [s⁻¹] | kon (Human IL-17A [3]) [M⁻¹ s⁻¹] | Kd (Cynomolgus monkey IL-17A) [nM] | koff (Cynomolgus monkey IL-17A) [s⁻¹] | kon (Cynomolgus monkey IL-17A) [M⁻¹ s⁻¹]
1 | hMAK199-1-h10F7-M10.8 QL DVD-Ig (bispecific antibody, human IgG1, kappa, L234A L235A, DVD-Ig; IgG1 (234,235) mut with QL mutations, kappa; GS10 linkers) heavy: EVQLVQSGAEVKKPGASVKVSCKASGYTFANYGIIWVRQAPGQGLEWMGWINTYTGKPTYAQKFQGRVTMTTDTSTSTAYMELSSLRSEDTAVYYCARKLFTTMDVTDNAMDYWGQGTTVTVSSGGGGSGGGGSEVQLVQSGAEVKKPGSSVKVSCKASGYTFDDYEIHWVRQAPGQGLEWIGVNDPESGGTFYNQKFDGRATLTADKSTSTAYMELSSLRSEDTAVYYCTRYDKWDSFYGMDYWGQGTTVTVSSASTKGPSVFPLAPSSKSTSGGTAALGCLVKDYFPEPVTVSWNSGALTSGVHTFPAVLQSSGLYSLSSVVTVPSSSLGTQTYICNVNHKPSNTKVDKKVEPKSCDKTHTCPPCPAPEAAGGPSVFLFPPKPKDQLMISRTPEVTCVVVDVSHEDPEVKFNWYVDGVEVHNAKTKPREEQYNSTYRVVSVLTVLHQDWLNGKEYKCKVSNKALPAPIEKTISKAKGQPREPQVYTLPPSREEMTKNQVSLTCLVKGFYPSDIAVEWESNGQPENNYKTTPPVLDSDGSFFLYSKLTVDKSRWQQGNVFSCSVLHEALHNHYTQKSLSLSPGK light: DIQMTQSPSSLSASVGDRVTITCRASQDISQYLNWYQQKPGKAPKLLIYYTSRLQSGVPSRFSGSGSGTDFTLTISSLQPEDFATYFCQQGNTWPPTFGQGTKLEIKRGGSGGGGSGDIQMTQSPSSLSASVGDRVTITCSASSGSISYIDWFQQKPGKAPKRLIYATFELASGVPSRFSGSGSGTDFTLTISSLQPEDFATYYCHQLGSYPDTFGQGTKLEIKRTVAAPSVFIFPPSDEQLKSGTASVVCLLNNFYPREAKVQWKVDNALQSGNSQESVTEQDSKDSTYSLSSTLTLSKADYEKHKVYACEVTHQGLSSPVTKSFNRGEC | 0.063 | 0.183 | – | – | – | – | – | – | –
2 | IL17-h10F7M-B20 hIgG1/K mut (antibody, V domains shown, Full length human IgG1/kappa, IgG1 mut(234,235); also called h10F7-B20; J439M1S2(H)3 #B20) VH: EVQLVQSGAEVKKPGSSVKVSCKASGYTFTDYEIHWVRQAPGQGLEWMGVNDPESGGTFYNQKFDGRVTLTADESTSTAYMELSSLRSEDTAVYYCTRYDKWYSFEGMDIWGQGTTVTVSS VL: DIQMTQSPSSLSASVGDRVTITCRASSGIISYIDWFQQKPGKAPKRLIYATFDLASGVPSRFSGSGSGTDYTLTISSLQPEDFATYYCRQVGSYPETFGQGTKLEIK | – | – | 0.07 | 0.00214 | 6.27e-06 | 2.92e+06 | – | – | –
3 | IL17-h10F7M10 hIgG1/K mut (antibody, V domains shown, Full length human IgG1/kappa, IgG1 mut(234,235) (HC plasmid pHybE-hCg1,z,non-a,mut(234,235); LC pHybE-hCk); also called J439M1S3R5#10; PR-1262986) VH: EVQLVQSGAEVKKPGSSVKVSCKASGYTFDDYEIHWVRQAPGQGLEWIGVNDPESGGTFYNQKFDGRATLTADKSTSTAYMELSSLRSEDTAVYYCTRYDKWDSFYGMDYWGQGTTVTVSS VL: DIQMTQSPSSLSASVGDRVTITCSASSGSISYIDWFQQKPGKAPKRLIYATFELASGVPSRFSGSGSGTDFTLTISSLQPEDFATYYCHQLGSYPDTFGQGTKLEIK | – | – | 0.03 | 0.00153 | 6.8e-06 | 4.45e+06 | 0.00106 | 4.4e-06 | 4.14e+06
4 | IL17-h10F7M-A6 hIgG1/K mut (antibody, V domains shown, Full length human IgG1/kappa, IgG1 mut(234,235); also called h10F7-A6; J439M1S2(H)3 #A6) VH: EVQLVQSGAEVKKPGSSVKVSCKASGYTFTDYEIHWVRQAPGQGLEWIGVNDPDSGGTLYNQKFDGRVTLTADESTSTAYMELSSLRSEDTAVYYCTRYDKWYSFEGMDIWGQGTTVTVSS VL: DIQMTQSPSSLSASVGDRVTITCSASQGIRSYIDWFQQKPGKSPKRLIYATFDLASGVPSRFSGSGSGTDYTLTISSLQPEDFATYYCRQVGNYPGTFGQGTKLEIK | – | – | 0.08 | 0.0015 | 4.48e-06 | 2.99e+06 | – | – | –
5 | IL17-h10F7M-A16 hIgG1/K mut (antibody, V domains shown, Full length human IgG1/kappa, IgG1 mut(234,235); also called h10F7-A16; J439M1S2(H)3 #A16) VH: EVQLVQSGAEVKKPGSSVKVSCKASGYTFSDYEIHWVRQAPGQGLEWMGVNDPESGGTFYNQKFDGRVTLTADESTSTAYMELSSLRSEDTAVYYCTRYDKWYSFEGMDIWGQGTTVTVSS VL: DIQMTQSPSSLSASVGDRVTITCSASQGIRSYIDWFQQKPGKSPKRLIYATFDLASGVPSRFSGSGSGTDYTLTISSLQPEDFATYYCRQVGNYPGTFGQGTKLEIK | – | – | 0.07 | 0.00151 | 4.52e-06 | 2.99e+06 | – | – | –
6 | IL17-h10F7M-A11 hIgG1/K mut (antibody, V domains shown, Full length human IgG1/kappa, IgG1 mut(234,235); also called h10F7-A11; J439M1S2(H)3 #A11) VH: EVQLVQSGAEVKKPGSSVKVSCKASGYTFTDYEIHWVRQAPGQGLEWIGVNDPESGGTFYNQKFDGRVTLSADESTSTAYMELSSLRSEDTAVYYCTRYDKYWSFEGMDYWGQGTTVTVSS VL: DIQMTQSPSSLSASVGDRVTITCRASSGIISYIDWFQQKPGKAPKRLIYATFDLASGVPSRFSGSGSGTDYTLTISSLQPEDFATYYCRQVGSYPETFGQGTKLEIK | – | – | 0.04 | 0.0021 | 7.68e-06 | 3.64e+06 | – | – | –
7 | IL17-h10F7M-B13 hIgG1/K mut (antibody, V domains shown, Full length human IgG1/kappa, IgG1 mut(234,235); also called h10F7-B13; J439M1S2(H)3 #B13) VH: EVQLVQSGAEVKKPGSSVKVSCKASGYTFSDYEIHWVRQAPGQGLEWMGVNDPESGGTFYNQKFDGRVTLTADESTSTAYMELSSLRSEDTAVYYCTRYDKYWSFEGMDYWGQGTTVTVSS VL: DIQMTQSPSSLSASVGDRVTITCRASSGIISYIDWFQQKPGKAPKRLIYATFDLASGVPSRFSGSGSGTDYTLTISSLQPEDFATYYCRQVGSYPETFGQGTKLEIK | – | – | 0.06 | 0.00256 | 6.88e-06 | 2.68e+06 | – | – | –
8 | IL17-h10F7M11 hIgG1/K mut (antibody, V domains shown, Full length human IgG1/kappa, IgG1 mut(234,235); also called J439M1S3R5#11; PR-1263009) VH: EVQLVQSGAEVKKPGSSVKVSCKASGYTFTDYEIHWVRQAPGQGLEWMGVNDPESGGTFYNQKFDGRVTLTADESTSTAYMELSSLRSEDTAVYYCTRYSKWDSFDGMDYWGQGTTVTVSS VL: DIQMTQSPSSLSASVGDRVTITCRASSGIISYIDWFQQKPGKAPKRLIYATFDLASGVPSRFSGSGSGTDYTLTISSLQPEDFATYYCRQVGSYPETFGQGTKLEIK | – | – | 0.04 | 0.00159 | 7.24e-06 | 4.53e+06 | 0.00086 | 3.88e-06 | 4.5e+06
